Laboratory results from the supplement of paper PMC9170038.

Each sequence was assayed on K4 kissing-loop RNA reporter (assay: apparent KD of K4 kissing-loop reporter; higher = weaker reporter binding). Settings: Eterna round: R107; input ligand: none.
Procedure: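 RNA-MaP round R107: designed RNA switches with theophylline, tryptophan, arginine or FMN aptamers are transcribed on-chip within common flanks. They are titrated with a labelled K4 kissing-loop RNA reporter in RNA-MaP buffer (100 mM Tris pH 7.5, 80 mM KCl, 4 mM MgCl2), without ligand or with the indicated ligand. Median apparent KD per design.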
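Further: bound reporter read as fluorescence of individual clusters on recovered sequencing chips by microscopy, with normalized cluster intensities fitted with a binding model.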

| Sequence | apparent KD of K4 kissing-loop reporter [µM] |
| --- | --- |
| UGUCAUUGGUCGGCCGCCACUUCAUAAAAGAGUGAUGUUCUAAAGACGGAUCGAAAGAUCUGUCGAAGGACCGGGACCGAUGACU [TrypBS 19 #SwitchBubble #StaticStem] | 0.209 |
| AAGCAGUCACUCGACACCAUCGAAGAUGGGCGAGGACCGGUACGGCCGCCACUCGGAGUGAUGUUCUGAUGACUGCAAAAUAAAA [MatMod 9 - Jieux - Exclusion - Tryptophan A] | 0.0863 |
| UCGAGUGAUGUUCGAUUUCAGUGAAGAGAUACCAGCCGCAGUGUAGGCCCUUGGCAGCUCGGCUAUUAUGACAUAUGCAGUUUAG [theeternabot_sameState_KL_Theo_A_29] | 0.119 |
| CAAUGAAUAUAAGAUGAUAUCAUAACAGAAGGAGCGAGUGAUAACUCAGGUAGGUCGCUGAAUUUAUCGAGUGAUGUUCGAUAAA [Same State Arginine A GF10] | 0.197 |
| UAAUCACUCGAACUUGCAACUCGAGUGGAACGAGGACCGGUACGGCCGCCACUCGAUAACUUGCAGUGAUGUUGCAAGUAAGAAU [(T)''-(K)'-(T)'-(T1)-(T2)-(K1)-(K2)_Design8] | 0.411 |
| CAUUCUAUAUGCAGUGAUGUUGCAACUGAUACCAGUAUCGAAAGAUACCCUUGGCAGCGGAAAACCGCUACGUAAUUUAAGAAUG [Ex Theophylline A K4 22] | 0.489 |
| ACUGAGCAUGCGGCCGCCACUUCAGAACGUCGCCCAAAGGGCGACGCCUCCACAGUGAUGUUGUGGAGGACCGGGCAUGUUCAGA [Omei KL Tryp B Exc A v2] | 0.136 |
| CAGCAUCAGGUUCAAACUGCAUGUACUGAUACCAGUCUUAAGAUCGACCCUUGGCAGCAGCUCCCGAGUGAUGUUCGUAGCGAGC [theeternabot_exclusion_KL_Theo_A_41] | 0.356 |
| UGUCAUUGGUCUGAUACCAGAAGAUAAUCUGGAGUGAUGUUCCAAGUACGACAAAGUCGCUUCCCUUGGCAGCAGACCGAUGACU [TheoBS 19 #SwitchBubble 13 #StaticStem] | 1.11 |

Same assay, conditions: Eterna round: R107; input ligand: theophylline 20 uM

| Sequence | apparent KD of K4 kissing-loop reporter [µM] |
| --- | --- |
| CGCAAUAUUACGGAGUGAUGUUUCGUAGUCCGAGGACCGGUACGGCCGCCACUCGCUGGCGUUGGCCCAUAGACCGACGGAAUCG [theeternabot_sameState_KL_Trp_A_39] | 0.236 |
| AAUUUAUAUUUAUUCUUUAAAUGUUCAGAAGGAGCGUGAAUUAUCACAGGUAGGUCGCUGAGCUAGUGAUGUUAGCUAUAUACUA [JR_ExcArginiA_Sub007] | 0.097 |
| UGAGGGAUCUCGGCCGCCACUCGUGGGAAAUGGGCCUCAGGGAUAUAGUGAUGUUAUGUAAAGAAGAGGACCGGGAGAAGGAAGG [ExTryptoB.Dh] | 0.386 |
| UUUUAAAUGUCUGAUACCAGAGAAAAUAUAUGUAGUGAUGUUAUAUACAAAUUUAAUAAGCUCCCUUGGCAGCAGUAUGAAUUUU [AstrosExc-TheB#12] | 0.784 |
| CCUCACGUAGGACUAGUGAUGUUAGACUACCGAGGACCGGUACGGCCGCCACUCGUCGUACAAGAUAACCAUCUGCCAGUAUACA | 0.107 |
| AAAUAGAUCAGUCACCCAGUGAUGUUGGAAGGAGCGUGCGAAAGCACAGGUAGGUCGCCAUAAUAAAAGUGGCUGAUCAAAAUAA | 0.534 |
| GUUAUUCUAAACGCAGUAGUGAUGUUGAUGCGAGGACCGGUACGGCCGCCACUCGACUGCCGUCACGCCCGUCCAACAGCCGGAG [theeternabot_exclusion_KL_Trp_A_20] | 0.254 |
| AAGCAGUCACUCGAAGCCAUCGAAGAUGGGCGAGGACCGGUACGGCCGCCACUCGGAGUGAUGUUCCGAGGACUGCAAAAUAAAA [MatMod 4 - Jieux - Exclusion - Tryptophan A] | 0.299 |
| UGUCAUUGGUCGGCCGCCACUUCAUAAAAGAGUGAUGUUCUAAAGACGGAUCGAAAGAUCUGUCGAAGGACCGGGACCGAUGACU [TrypBS 19 #SwitchBubble #StaticStem] | 0.419 |
| AAGCAGUCACUCGACACCAUCGAAGAUGGGCGAGGACCGGUACGGCCGCCACUCGGAGUGAUGUUCUGAUGACUGCAAAAUAAAA [MatMod 9 - Jieux - Exclusion - Tryptophan A] | 0.158 |
| UCGAGUGAUGUUCGAUUUCAGUGAAGAGAUACCAGCCGCAGUGUAGGCCCUUGGCAGCUCGGCUAUUAUGACAUAUGCAGUUUAG [theeternabot_sameState_KL_Theo_A_29] | 0.122 |
| CAAUGAAUAUAAGAUGAUAUCAUAACAGAAGGAGCGAGUGAUAACUCAGGUAGGUCGCUGAAUUUAUCGAGUGAUGUUCGAUAAA [Same State Arginine A GF10] | 0.176 |
| UAAUCACUCGAACUUGCAACUCGAGUGGAACGAGGACCGGUACGGCCGCCACUCGAUAACUUGCAGUGAUGUUGCAAGUAAGAAU [(T)''-(K)'-(T)'-(T1)-(T2)-(K1)-(K2)_Design8] | 0.411 |
| CAUUCUAUAUGCAGUGAUGUUGCAACUGAUACCAGUAUCGAAAGAUACCCUUGGCAGCGGAAAACCGCUACGUAAUUUAAGAAUG [Ex Theophylline A K4 22] | 0.523 |
| ACUGAGCAUGCGGCCGCCACUUCAGAACGUCGCCCAAAGGGCGACGCCUCCACAGUGAUGUUGUGGAGGACCGGGCAUGUUCAGA [Omei KL Tryp B Exc A v2] | 0.111 |
| CAGCAUCAGGUUCAAACUGCAUGUACUGAUACCAGUCUUAAGAUCGACCCUUGGCAGCAGCUCCCGAGUGAUGUUCGUAGCGAGC [theeternabot_exclusion_KL_Theo_A_41] | 0.401 |
| UGUCAUUGGUCUGAUACCAGAAGAUAAUCUGGAGUGAUGUUCCAAGUACGACAAAGUCGCUUCCCUUGGCAGCAGACCGAUGACU [TheoBS 19 #SwitchBubble 13 #StaticStem] | 0.619 |

Same assay, conditions: Eterna round: R107; input ligand: tryptophan 2.4 mM

| Sequence | apparent KD of K4 kissing-loop reporter [µM] |
| --- | --- |
| CGCAAUAUUACGGAGUGAUGUUUCGUAGUCCGAGGACCGGUACGGCCGCCACUCGCUGGCGUUGGCCCAUAGACCGACGGAAUCG [theeternabot_sameState_KL_Trp_A_39] | 0.238 |
| AAUUUAUAUUUAUUCUUUAAAUGUUCAGAAGGAGCGUGAAUUAUCACAGGUAGGUCGCUGAGCUAGUGAUGUUAGCUAUAUACUA [JR_ExcArginiA_Sub007] | 0.0475 |
| UGAGGGAUCUCGGCCGCCACUCGUGGGAAAUGGGCCUCAGGGAUAUAGUGAUGUUAUGUAAAGAAGAGGACCGGGAGAAGGAAGG [ExTryptoB.Dh] | 0.203 |
| UUUUAAAUGUCUGAUACCAGAGAAAAUAUAUGUAGUGAUGUUAUAUACAAAUUUAAUAAGCUCCCUUGGCAGCAGUAUGAAUUUU [AstrosExc-TheB#12] | 0.552 |
| CCUCACGUAGGACUAGUGAUGUUAGACUACCGAGGACCGGUACGGCCGCCACUCGUCGUACAAGAUAACCAUCUGCCAGUAUACA | 0.168 |
| AAAUAGAUCAGUCACCCAGUGAUGUUGGAAGGAGCGUGCGAAAGCACAGGUAGGUCGCCAUAAUAAAAGUGGCUGAUCAAAAUAA | 0.31 |
| GUUAUUCUAAACGCAGUAGUGAUGUUGAUGCGAGGACCGGUACGGCCGCCACUCGACUGCCGUCACGCCCGUCCAACAGCCGGAG [theeternabot_exclusion_KL_Trp_A_20] | 0.268 |
| AAGCAGUCACUCGAAGCCAUCGAAGAUGGGCGAGGACCGGUACGGCCGCCACUCGGAGUGAUGUUCCGAGGACUGCAAAAUAAAA [MatMod 4 - Jieux - Exclusion - Tryptophan A] | 0.311 |
| UGUCAUUGGUCGGCCGCCACUUCAUAAAAGAGUGAUGUUCUAAAGACGGAUCGAAAGAUCUGUCGAAGGACCGGGACCGAUGACU [TrypBS 19 #SwitchBubble #StaticStem] | 0.753 |
| AAGCAGUCACUCGACACCAUCGAAGAUGGGCGAGGACCGGUACGGCCGCCACUCGGAGUGAUGUUCUGAUGACUGCAAAAUAAAA [MatMod 9 - Jieux - Exclusion - Tryptophan A] | 0.0756 |
| UCGAGUGAUGUUCGAUUUCAGUGAAGAGAUACCAGCCGCAGUGUAGGCCCUUGGCAGCUCGGCUAUUAUGACAUAUGCAGUUUAG [theeternabot_sameState_KL_Theo_A_29] | 0.08 |
| CAAUGAAUAUAAGAUGAUAUCAUAACAGAAGGAGCGAGUGAUAACUCAGGUAGGUCGCUGAAUUUAUCGAGUGAUGUUCGAUAAA [Same State Arginine A GF10] | 0.183 |
| UAAUCACUCGAACUUGCAACUCGAGUGGAACGAGGACCGGUACGGCCGCCACUCGAUAACUUGCAGUGAUGUUGCAAGUAAGAAU [(T)''-(K)'-(T)'-(T1)-(T2)-(K1)-(K2)_Design8] | 0.219 |
| CAUUCUAUAUGCAGUGAUGUUGCAACUGAUACCAGUAUCGAAAGAUACCCUUGGCAGCGGAAAACCGCUACGUAAUUUAAGAAUG [Ex Theophylline A K4 22] | 0.327 |
| ACUGAGCAUGCGGCCGCCACUUCAGAACGUCGCCCAAAGGGCGACGCCUCCACAGUGAUGUUGUGGAGGACCGGGCAUGUUCAGA [Omei KL Tryp B Exc A v2] | 0.144 |
| CAGCAUCAGGUUCAAACUGCAUGUACUGAUACCAGUCUUAAGAUCGACCCUUGGCAGCAGCUCCCGAGUGAUGUUCGUAGCGAGC [theeternabot_exclusion_KL_Theo_A_41] | 0.336 |
| UGUCAUUGGUCUGAUACCAGAAGAUAAUCUGGAGUGAUGUUCCAAGUACGACAAAGUCGCUUCCCUUGGCAGCAGACCGAUGACU [TheoBS 19 #SwitchBubble 13 #StaticStem] | 0.886 |
